Reference: PMC8955265, “Systematic Discovery of FBXW7-Binding Phosphodegrons Highlights Mitogen-Activated Protein Kinases as Important Regulators of Intracellular Protein Levels” (International Journal of Molecular Sciences, 2022)
Where no end group is shown, it is not given here. [ ]: non-standard residue; d: D form. pT = C[C@@H](OP(=O)(O)O)[C@H](N)C(=O)O; pS = N[C@@H](COP(=O)(O)O)C(=O)O; CF = carboxyfluorescein

Target: T1, Skp1-FBXW7 complex (human, UniProt P63208 1-149; Q969H0 263-707)
T1 construct: Skp1, truncated, residues 1-149; cDNA obtained from a HEK293T cell cDNA pool; human FBXW7, residues 263-707 (holds the WD40 domain); it was removed with TEV protease after Ni-NTA; also called purified FBXW7; FBXW7-Skp1 complex; source: E. coli Rosetta (DE3), co-expressed from a bicistronic plasmid (pMG950), purified (Ni-NTA, anion exchange, SEC); not shown: His6, N-terminal, cleaved
T1 sequence (P63208 1-149, chain 1 of 2): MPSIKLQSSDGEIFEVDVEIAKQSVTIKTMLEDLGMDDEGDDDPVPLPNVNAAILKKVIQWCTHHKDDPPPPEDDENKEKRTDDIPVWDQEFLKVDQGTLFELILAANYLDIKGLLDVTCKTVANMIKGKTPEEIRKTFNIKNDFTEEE
T1 sequence (Q969H0 263-707, chain 2 of 2): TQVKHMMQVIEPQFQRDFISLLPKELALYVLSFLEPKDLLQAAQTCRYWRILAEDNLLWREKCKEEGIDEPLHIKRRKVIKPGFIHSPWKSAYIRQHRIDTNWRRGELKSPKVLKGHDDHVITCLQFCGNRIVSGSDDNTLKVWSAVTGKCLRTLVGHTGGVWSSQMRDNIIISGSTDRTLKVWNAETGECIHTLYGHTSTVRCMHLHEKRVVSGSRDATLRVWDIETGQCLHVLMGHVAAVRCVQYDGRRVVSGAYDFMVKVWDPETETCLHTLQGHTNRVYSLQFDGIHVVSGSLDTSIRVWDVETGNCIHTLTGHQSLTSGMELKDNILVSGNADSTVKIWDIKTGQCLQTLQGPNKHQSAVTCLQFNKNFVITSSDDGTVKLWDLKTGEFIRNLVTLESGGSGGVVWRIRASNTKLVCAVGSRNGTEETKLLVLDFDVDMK
Assay: fluorescence polarisation; direct titration: 50 nM CF-labeled CCNE peptide, increasing Skp1-FBXW7 complex; 20 mM Tris pH 8.0, 100 mM NaCl, 0.05% Brij35P, 2 mM TCEP; 384-well plates, 20 uL
Conditions: both partners purified

- binding result: binds
B1: carboxyfluorescein (CF) labeled CCNE peptide (CF-PSGLLpTPPQpSGKKQ) (peptide)
peptide: {CF}-PSGLL[pT]PPQ[pS]GKKQ
notes: bisphosphorylated degron motif of cyclin E1 (CCNE1); also called fluorescently labeled CCNE peptide; CCNE1 motif; source: synthetic peptide (GenScript)
